Experimental data published in the supplement of paper PMC10567573.

B1: ACSBG2 (parent)
chain: TPMTIPEFFRESVNRFGTYPALAS

Variants of: B1
Test: protein stability index of a GFP-peptide fusion (GPS, HEK-293T) (PSI 1-6); higher = more stable
Settings: c terminus: a fixed tail appended
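Further: lentivirally expressed fusions sorted by FACS into six bins by GFP to DsRed ratio, PSI derived from sequencing read proportions per bin multiplied by bin number.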

Row | Variant | protein stability index
1 | TPMTIPEFFRESVNRFGTHPALAS | 2.77
2 | TPMTIPEFFRESVNRFGTFPALAS | 2.52
3 | TPMTIPEFFRESVNRFGTMPALAS | 2.77
4 | TPMTIPEFFRESVNRFGTSPALAS | 2.54
5 | TPMTIPEFFRESVNRFGTLPALAS | 2.38
6 | TPMTIPEFFRESVNRFGTTPALAS | 2.76
7 | TPMTIPEFFRESVNRFGTWPALAS | 2.38
8 | TPMTIPEFFRESVNRFGTRPALAS | 3.17
9 | TPMTIPEFFRESVNRFGTAPALAS | 2.82
10 | TPMTIPEWFRESVNRFGTYPALAS | 2.09
11 | TPMTIPEAFRESVNRFGTYPALAS | 2.99
12 | TPMTIPETFRESVNRFGTYPALAS | 2.8
13 | TPMTIPESFRESVNRFGTYPALAS | 2.9
14 | TPMTIPEHFRESVNRFGTYPALAS | 2.45
15 | TPMTIPEPFRESVNRFGTYPALAS | 2.72
16 | TPMTIPEDFRESVNRFGTYPALAS | 3.19
17 | TPMTIPERFRESVNRFGTYPALAS | 2.39
18 | TPMTWPEFFRESVNRFGTYPALAS | 2.18
19 | TPMTAPEFFRESVNRFGTYPALAS | 2.44
20 | TPMTVPEFFRESVNRFGTYPALAS | 2.03
21 | TPMTTPEFFRESVNRFGTYPALAS | 2.67
22 | TPMTCPEFFRESVNRFGTYPALAS | 2.58
23 | TPMTYPEFFRESVNRFGTYPALAS | 2.05
24 | TPMTMPEFFRESVNRFGTYPALAS | 2.37

Row | Variant | protein stability index
25 | TPMTEPEFFRESVNRFGTYPALAS | 2.84
26 | TPMTSPEFFRESVNRFGTYPALAS | 2.51
27 | TPMTIPEFFRESVNQFGTYPALAS | 2.69
28 | TPMTIPEFFRESVNTFGTYPALAS | 2.57
29 | TPMTIPEFFRESVNHFGTYPALAS | 2.14
30 | TPMTIPEFFRESVNCFGTYPALAS | 2.12
31 | TPMTIPEFFRESVNWFGTYPALAS | 1.52
32 | TPMTIPEFFRESVNAFGTYPALAS | 2.41
33 | TPMTIPEFFRESVNYFGTYPALAS | 1.99
34 | TPMTIPEFFRESVNPFGTYPALAS | 2.04
35 | TPMTIPEFFRESVNDFGTYPALAS | 2.78
36 | TPMTIPEFFRESVNKFGTYPALAS | 2.1
37 | TPKTIPEFFRESVNRFGTYPALAS | 2.46
38 | TPRTIPEFFRESVNRFGTYPALAS | 2.61
39 | TPDTIPEFFRESVNRFGTYPALAS | 2.52
40 | TPSTIPEFFRESVNRFGTYPALAS | 2.8
41 | TPATIPEFFRESVNRFGTYPALAS | 2.34
42 | TPMTISEFFRESVNRFGTYPALAS | 1.94
43 | TPMTICEFFRESVNRFGTYPALAS | 1.89
44 | TPMTIEEFFRESVNRFGTYPALAS | 2.15
45 | TPMTIGEFFRESVNRFGTYPALAS | 2.08
46 | TPMTIFEFFRESVNRFGTYPALAS | 4.36
47 | TPMTIVEFFRESVNRFGTYPALAS | 1.41
48 | TPMIIPEFFRESVNRFGTYPALAS | 1.88

Row | Variant | protein stability index
49 | TPMQIPEFFRESVNRFGTYPALAS | 2.13
50 | TPMGIPEFFRESVNRFGTYPALAS | 2.34
51 | TPMHIPEFFRESVNRFGTYPALAS | 2.38
52 | TPMKIPEFFRESVNRFGTYPALAS | 2.31
53 | TPMSIPEFFRESVNRFGTYPALAS | 1.99
54 | TPMCIPEFFRESVNRFGTYPALAS | 2.36
55 | IPMTIPEFFRESVNRFGTYPALAS | 1.93
56 | EPMTIPEFFRESVNRFGTYPALAS | 2.12
57 | HPMTIPEFFRESVNRFGTYPALAS | 2.07
58 | FPMTIPEFFRESVNRFGTYPALAS | 2.24
59 | WPMTIPEFFRESVNRFGTYPALAS | 2
60 | RPMTIPEFFRESVNRFGTYPALAS | 2.34
61 | QPMTIPEFFRESVNRFGTYPALAS | 2.44
62 | SPMTIPEFFRESVNRFGTYPALAS | 2.13
63 | TPMTIPEFFRESVNRFGTYPALGS | 2.2
64 | TPMTIPEFFRESVNRFGTYPALDS | 2.88
65 | TPMTIPEFFRESVNRFGTYPALVS | 1.66
66 | TPMTIPEFFRESVNRFGTYPALWS | 2.55
67 | TPMTIPEFFRESVNRFGTYPALES | 2.61
68 | TPMTIPEFFRESVNRFGTYPALCS | 1.77
69 | TPMTIPEFFRESVNRFGTYKALAS | 2.39
70 | TPMTIPEFFRESVNRFGTYIALAS | 2.34
71 | TPMTIPEFFRESVNRFGTYWALAS | 2.11
72 | TPMTIPEFFRESVNRFGTYMALAS | 2.87

Row | Variant | protein stability index
73 | TPMTIPEFFRESVNRFGTYRALAS | 2.18
74 | TPMTIPEFFRESVNRFGTYGALAS | 2.3
75 | TPMTIPEFFRESVNRFGTYNALAS | 2.11
76 | TPMTIPEFFRESVNRFGTYHALAS | 1.92
77 | TPMTIPEFFRESVNRFGTYLALAS | 2.63
78 | TPMTIPEFFRESVNRWGTYPALAS | 2.16
79 | TPMTIPEFFRESVNRVGTYPALAS | 2.64
80 | TPMTIPEFFRESVNRQGTYPALAS | 2.8
81 | TPMTIPEFFRESVNRYGTYPALAS | 2.22
82 | TPMTIPEFFRESVNRRGTYPALAS | 2.86
83 | TPMTIPEFFRESVNREGTYPALAS | 3.37
84 | TPMTIPEFFRESVNRMGTYPALAS | 3.39
85 | TPMTIPEFFRESVNRGGTYPALAS | 2.48
86 | TPMTIPEFFRESVNRKGTYPALAS | 3.22
87 | TPMTIPEFFRYSVNRFGTYPALAS | 1.68
88 | TPMTIPEFFRPSVNRFGTYPALAS | 1.72
89 | TPMTIPEFFRGSVNRFGTYPALAS | 1.89
90 | TPMTIPEFFRSSVNRFGTYPALAS | 2.15
91 | TPMTIPEFFRLSVNRFGTYPALAS | 1.48
92 | TPMTIPEFFRISVNRFGTYPALAS | 1.69
93 | TPMTIPEFFRFSVNRFGTYPALAS | 2.47
94 | TPMTIPEFFRKSVNRFGTYPALAS | 2.09
95 | TPMTIPEFFRHSVNRFGTYPALAS | 1.84
96 | TPMTIPEFFRESVNRFGIYPALAS | 2.02

Row | Variant | protein stability index
97 | TPMTIPEFFRESVNRFGAYPALAS | 1.89
98 | TPMTIPEFFRESVNRFGQYPALAS | 2.02
99 | TPMTIPEFFRESVNRFGVYPALAS | 2.29
100 | TPMTIPEFFRESVNRFGYYPALAS | 2.09
101 | TPMTIPEFFRESVNRFGSYPALAS | 2.06
102 | TPMTIPEFFRESVNRFGEYPALAS | 3.05
103 | TPMTIPEFFRESVNRFGGYPALAS | 2.17
104 | TPMTIPEFFRESVNRFGHYPALAS | 2.1
105 | TPMTIPEFFRESVNRFGCYPALAS | 2.35
106 | TPMTIPEFFRESVNRFGNYPALAS | 2.35
107 | TPMTIPEFFRESVNRFGFYPALAS | 1.9
108 | TPMTIPEFFRESVNRFGMYPALAS | 1.74
109 | TPMTIPEFFRESVNRFGDYPALAS | 2.9
110 | TPMTIPEFFRESVNRFGPYPALAS | 2.08
111 | TPMTIPEFPRESVNRFGTYPALAS | 2.79
112 | TPMTIPEFIRESVNRFGTYPALAS | 2.27
113 | TPMTIPEFVRESVNRFGTYPALAS | 2.36
114 | TPMTIPEFFRESVKRFGTYPALAS | 2.54
115 | TPMTIPEFFRESVWRFGTYPALAS | 1.74
116 | TPMTIPEFFRESVVRFGTYPALAS | 1.93
117 | TPMTIPEFFRESVFRFGTYPALAS | 1.66
118 | TPMTIPEFFRESVSRFGTYPALAS | 2.51
119 | TPMTIPEFFRESVPRFGTYPALAS | 2.66
120 | TPMTIPEFFRESVHRFGTYPALAS | 2.05

Row | Variant | protein stability index
121 | TPMTIPEFFRESVDRFGTYPALAS | 2.65
122 | TPMTIPEFFRESVRRFGTYPALAS | 2.01
123 | TPMTIPEFFRESVGRFGTYPALAS | 2.18
124 | TPMTIPEFFRECVNRFGTYPALAS | 1.53
125 | TPMTIPEFFREDVNRFGTYPALAS | 2.96
126 | TPMTIPEFFRETVNRFGTYPALAS | 2.02
127 | TPMTIPEFFREMVNRFGTYPALAS | 2.64
128 | TPMTIPEFFREFVNRFGTYPALAS | 1.66
129 | TPMTIPEFFREKVNRFGTYPALAS | 2.17
130 | TPMTIPEFFREWVNRFGTYPALAS | 1.39
131 | TPMTIPEFFREAVNRFGTYPALAS | 1.97
132 | TPMTIPEFFREPVNRFGTYPALAS | 2.47
133 | TPMTIPEFFEESVNRFGTYPALAS | 2.43
134 | TPMTIPEFFPESVNRFGTYPALAS | 3.03
135 | TPMTIPEFFIESVNRFGTYPALAS | 1.51
136 | TPMTIPEFFKESVNRFGTYPALAS | 2.55
137 | TPMTIPEFFAESVNRFGTYPALAS | 2.61
138 | TPMTIPEFFRESVNRFGTYPAEAS | 3.37
139 | TPMTIPEFFRESVNRFGTYPARAS | 3.12
140 | TPMTIPEFFRESVNRFGTYPASAS | 3.04
141 | TPMTIPEFFRESVNRFGTYPAQAS | 2.5
142 | TPMTIPEFFRESVNRFGTYPATAS | 2.88
143 | TPMTIPEFFRESVNRFGTYPAFAS | 2.63
144 | TPMTIPEFFRESVNRFGTYPAKAS | 3.08

Row | Variant | protein stability index
145 | TPMTIPEFFRESVNRFGTYPACAS | 2.54
146 | TPMTIPEFFRESVNRFGTYPAGAS | 3
147 | TPMTIPEFFRESVNRFGTYPAWAS | 2.57
148 | TPMTIPEFFRESVNRFDTYPALAS | 2.76
149 | TPMTIPEFFRESVNRFFTYPALAS | 1.8
150 | TPMTIPEFFRESVNRFRTYPALAS | 2.42
151 | TPMTIPEFFRESVNRFWTYPALAS | 2.12
152 | TPMTIPEFFRESVNRFLTYPALAS | 1.95
153 | TPMTIPEFFRESVNRFSTYPALAS | 2.62
154 | TPMTIPEFFRESVNRFGTYPMLAS | 2.26
155 | TPMTIPEFFRESVNRFGTYPELAS | 2.69
156 | TPMTIPEFFRESVNRFGTYPGLAS | 2.47
157 | TPMTIPEFFRESQNRFGTYPALAS | 2.28
158 | TPMTIPEFFRESFNRFGTYPALAS | 1.97
159 | TPMTIPEFFRESWNRFGTYPALAS | 1.76
160 | TPMTIPEFFRESLNRFGTYPALAS | 2.09
161 | TPMTIPEFFRESSNRFGTYPALAS | 2.44
162 | TPMTIPEFFRESMNRFGTYPALAS | 2.41
163 | TPMTIPEFFRESHNRFGTYPALAS | 2.59
164 | TPMTIPEFFRESYNRFGTYPALAS | 2.64
165 | TPMTIPEFFRESPNRFGTYPALAS | 2.43
166 | TPMTIPEFFRESVNRFGTYPALAF | 1.58
167 | TPMTIPEFFRESVNRFGTYPALAG | 2.18
168 | TPMTIPEFFRESVNRFGTYPALAN | 2.64

Row | Variant | protein stability index
169 | TPMTIPEFFRESVNRFGTYPALAD | 2.87
170 | TPMTIPEFFRESVNRFGTYPALAM | 2.67
171 | TPMTIPEFFRESVNRFGTYPALAH | 1.93
172 | TYMTIPEFFRESVNRFGTYPALAS | 2.88
173 | TMMTIPEFFRESVNRFGTYPALAS | 2.55
174 | TRMTIPEFFRESVNRFGTYPALAS | 2.12
175 | TSMTIPEFFRESVNRFGTYPALAS | 2.41
176 | TVMTIPEFFRESVNRFGTYPALAS | 1.98
177 | TGMTIPEFFRESVNRFGTYPALAS | 2.12
178 | TIMTIPEFFRESVNRFGTYPALAS | 1.44
179 | TQMTIPEFFRESVNRFGTYPALAS | 2.4
180 | TPMTIPFFFRESVNRFGTYPALAS | 2.93
181 | TPMTIPVFFRESVNRFGTYPALAS | 1.9
182 | TPMTIPWFFRESVNRFGTYPALAS | 1.74
183 | TPMTIPPFFRESVNRFGTYPALAS | 2.24
184 | TPMTIPSFFRESVNRFGTYPALAS | 2
185 | TPMTIPGFFRESVNRFGTYPALAS | 2.14
186 | TPMTIPQFFRESVNRFGTYPALAS | 2.02
187 | TPMTIPLFFRESVNRFGTYPALAS | 2.15
188 | TPMTIPHFFRESVNRFGTYPALAS | 2.94
